Laboratory results published in US20140223606, “COMPOSITIONS AND METHODS COMPRISING SEQUENCES HAVING MEGANUCLEASE ACTIVITY” (PIONEER HI BRED INTERNATIONAL INC, published 2014).

What was measured:
Test in all cases: cell_activity; yeast 30 C; 22 C: 4
Conditions in all cases: tags: NLS, 6xHis
LIG3-4(B70) = target: T1, LIG3-4(B70) (artificial)
T1 chain: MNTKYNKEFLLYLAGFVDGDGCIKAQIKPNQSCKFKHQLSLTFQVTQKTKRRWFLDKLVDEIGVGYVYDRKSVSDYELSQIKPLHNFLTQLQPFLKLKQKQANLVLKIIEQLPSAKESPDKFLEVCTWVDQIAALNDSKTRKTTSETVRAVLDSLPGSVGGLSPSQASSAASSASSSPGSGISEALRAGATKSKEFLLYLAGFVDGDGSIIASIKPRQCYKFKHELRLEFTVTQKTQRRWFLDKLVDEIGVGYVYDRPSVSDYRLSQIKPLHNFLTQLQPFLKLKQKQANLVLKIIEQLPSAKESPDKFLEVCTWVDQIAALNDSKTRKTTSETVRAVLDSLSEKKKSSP
Protocol: (§1) A 3 mL culture of selective media (MP Biomedical) was inoculated with a single colony of the yeast screening strain and grown at 30° C. overnight. On the following day, a 50 ml YPD culture (MP Biomedical) was started with 2 ml of the overnight culture and grown at 30° C. overnight. On the following day, the cells were harvested by centrifugation at 4000 rpm. The cells were resuspended in 100 ml ice cold water and centrifuged again. The cells were then washed in 1.2 M sorbitol, followed by treatment with 2 ml of 10 mM Tris pH 8.0, 1 mM EDTA, 100 mM Lithium acetate, 10 mM DTT, 0.6M sorbitol for 30 minutes at 30° C. with shaking. The cells were recovered by centrifugation, washed in 40 ml 1.2M sorbitol and finally resuspended in 250 microliters of 1.2M sorbitol. 50 microliter aliquots were transferred to test tubes on ice. Up to 5 microliters of DNA (100-500 nanograms) were added. The suspension was transferred to a 0.2 cm electroporation cuvette, on ice. Electroporation was performed with a pulse charge at 1.5 kV, 200 ohms, 25 microF (pulse time of 5 milliseconds). 1 mL YPD media (MP Biomedical) was added and the cells were allowed to recover at 30° C. for 1-2 hr. The cells were centrifuged, resuspended in 100 uL 1M sorbitol and plated on selective media lacking leucine and containing 2% galactose. The resulting yeast colonies were incubated at various temperatures ranging from 22 to 37 degrees Celsius for 7-10 days. I-CreI and meganucleases derived from it have maximal activity at or above 37 degrees Celsius. Screening was performed at a range of temperatures from 22 to 37 degrees in order to observe increases in activity at lower temperatures which are relevant to certain biological systems (eg. plant cells, plant cell cultures, etc). At that time the red/white sectoring phenotype, indicative of meganuclease activity was observed. Colonies with increased white sectoring over the parental meganuclease (indicating colonies expressing a meganuclease with increased meganuclease activity), also referred to as “hits” and sometimes completely white, were isolated for further analysis.

LIG3-4(B75) = target: T2, LIG3-4(B75) (artificial)
T2 chain: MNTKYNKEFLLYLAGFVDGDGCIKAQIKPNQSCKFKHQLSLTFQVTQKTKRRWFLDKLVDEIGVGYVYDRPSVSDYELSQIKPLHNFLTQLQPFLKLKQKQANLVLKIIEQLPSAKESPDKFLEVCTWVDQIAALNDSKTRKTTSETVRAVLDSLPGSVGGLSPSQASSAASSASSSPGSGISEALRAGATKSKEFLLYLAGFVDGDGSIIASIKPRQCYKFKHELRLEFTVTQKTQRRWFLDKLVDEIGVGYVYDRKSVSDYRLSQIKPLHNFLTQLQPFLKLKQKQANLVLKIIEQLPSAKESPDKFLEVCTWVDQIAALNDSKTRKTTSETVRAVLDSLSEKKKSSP
Protocol: as §1

LIG3-4(B76) = target: T3, LIG3-4(B76) (artificial)
T3 chain: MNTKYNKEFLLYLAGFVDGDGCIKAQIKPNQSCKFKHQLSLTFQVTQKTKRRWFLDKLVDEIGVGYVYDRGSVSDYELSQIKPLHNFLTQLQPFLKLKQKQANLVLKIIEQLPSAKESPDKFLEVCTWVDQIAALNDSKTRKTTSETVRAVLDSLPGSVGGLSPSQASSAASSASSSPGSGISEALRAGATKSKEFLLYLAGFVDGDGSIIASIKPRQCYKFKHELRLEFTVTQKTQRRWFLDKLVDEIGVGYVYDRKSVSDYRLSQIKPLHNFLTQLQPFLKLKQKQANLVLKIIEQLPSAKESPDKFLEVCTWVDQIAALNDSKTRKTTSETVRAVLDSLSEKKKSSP
Protocol: as §1

LIG3-4(B78) = target: T4, LIG3-4(B78) (artificial)
T4 chain: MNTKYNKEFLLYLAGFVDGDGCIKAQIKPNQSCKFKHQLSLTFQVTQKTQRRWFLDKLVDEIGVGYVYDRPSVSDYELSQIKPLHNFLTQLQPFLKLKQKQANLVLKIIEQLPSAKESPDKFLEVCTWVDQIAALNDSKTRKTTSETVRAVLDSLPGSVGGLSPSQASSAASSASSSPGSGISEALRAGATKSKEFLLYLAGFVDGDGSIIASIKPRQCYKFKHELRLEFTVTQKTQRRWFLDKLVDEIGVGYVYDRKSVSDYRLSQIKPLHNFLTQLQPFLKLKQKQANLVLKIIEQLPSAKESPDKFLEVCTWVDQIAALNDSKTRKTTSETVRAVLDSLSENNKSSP
Protocol: as §1

LIG3-4(B82) = target: T5, LIG3-4(B82) (artificial)
T5 chain: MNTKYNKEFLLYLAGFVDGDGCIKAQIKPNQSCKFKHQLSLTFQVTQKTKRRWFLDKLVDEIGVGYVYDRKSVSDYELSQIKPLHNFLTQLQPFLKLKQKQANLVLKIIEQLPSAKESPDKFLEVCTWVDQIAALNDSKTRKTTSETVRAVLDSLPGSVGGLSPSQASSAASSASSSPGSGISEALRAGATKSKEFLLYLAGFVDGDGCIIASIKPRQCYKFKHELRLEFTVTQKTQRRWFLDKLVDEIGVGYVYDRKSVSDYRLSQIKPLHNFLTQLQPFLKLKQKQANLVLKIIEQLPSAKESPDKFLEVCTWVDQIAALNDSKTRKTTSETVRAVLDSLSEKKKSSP
Protocol: as §1

Measured: activity

B1: LIG3-4 recognition site (dsDNA)
DNA 1: ATATACCTCACACGTACGCGTA
DNA 2: TACGCGTACGTGTGAGGTATAT
4 score 0-4: all assays above
